How the values were obtained:
[1] = target: Cul3N (human Cul3 N-terminal domain, residues 1–388, I342R L346D) (human, UniProt Q13618 1-388, I342R | L346D); assay: ITC
[2] = target: Cul3NΔ22 (human Cul3 N-terminal domain, residues 23–388, I342R L346D) (human, UniProt Q13618 23-388, I342R | L346D); assay: ITC
Sequence of Cul3NΔ22 (human Cul3 N-terminal domain, residues 23–388, I342R L346D) (Q13618 23-388 I342R/L346D): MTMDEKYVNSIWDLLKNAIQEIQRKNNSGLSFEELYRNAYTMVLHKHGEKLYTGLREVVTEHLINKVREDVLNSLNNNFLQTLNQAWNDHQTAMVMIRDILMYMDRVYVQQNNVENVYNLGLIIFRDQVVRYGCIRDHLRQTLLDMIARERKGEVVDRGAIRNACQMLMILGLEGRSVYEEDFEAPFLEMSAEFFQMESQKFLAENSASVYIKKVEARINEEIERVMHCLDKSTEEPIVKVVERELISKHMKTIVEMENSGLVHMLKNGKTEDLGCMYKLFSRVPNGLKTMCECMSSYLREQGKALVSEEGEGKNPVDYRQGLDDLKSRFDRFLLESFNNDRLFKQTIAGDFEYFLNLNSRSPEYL

Sequence of Cul3N (human Cul3 N-terminal domain, residues 1–388, I342R L346D) (Q13618 1-388 I342R/L346D): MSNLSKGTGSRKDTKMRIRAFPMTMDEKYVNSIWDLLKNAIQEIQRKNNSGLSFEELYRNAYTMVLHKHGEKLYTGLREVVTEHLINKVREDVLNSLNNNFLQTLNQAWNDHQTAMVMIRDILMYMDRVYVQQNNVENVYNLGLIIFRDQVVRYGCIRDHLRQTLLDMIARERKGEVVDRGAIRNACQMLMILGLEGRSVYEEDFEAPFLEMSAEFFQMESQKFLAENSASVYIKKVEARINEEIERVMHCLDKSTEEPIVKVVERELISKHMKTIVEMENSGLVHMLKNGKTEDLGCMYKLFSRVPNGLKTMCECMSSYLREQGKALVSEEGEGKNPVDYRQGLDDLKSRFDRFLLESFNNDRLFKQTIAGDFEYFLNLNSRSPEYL

- Kd [1]: 22.9 nM
- Kd [2]: 36.2 nM
B1: KLHL3-BB (human KLHL3 BTB-BACK domain, residues 24–276) (domain or fragment)
chain: RTITVNPAHMGKAFKVMNELRSKQLLCDVMIVAEDVEIEAHRVVLAACSPYFCAMFTGDMSESKAKKIEIKDVDGQTLSKLIDYIYTAEIEVTEENVQVLLPAASLLQLMDVRQNCCDFLQSQLHPTNCLGIRAFADVHTCTDLLQQANAYAEQHFPEVMLGEEFLSLSLDQVCSLISSDKLTVSSEEKVFEAVISWINYEKETRLEHMAKLMEHVRLPLLPRDYLVQTVEEEALIKNNNTCKDFLIEAMKYH
